Assay [1] addresses Apical domain construct of hTfR1 displayed on M13 phage (human). Kind of assay: Seqitope mutagenic scanning of the phage-displayed apical domain of hTfR1.
The target in assay [2] is His-tagged ectodomain of human transferrin receptor 1 (hTfR1), amino acids R121-F760 (human) (UniProt P02786). Put plainly: SPR (Biacore T200, single-cycle); hTfR1 captured on amine-coupled hTf, binder as analyte 6.25-100 nM. For orientation: Surface plasmon resonance follows binding to a sensor surface in real time, without labels.
For assay [3] the target is unchanged. Kind of assay: SPR; binder captured on protein A, receptor as analyte 0.156-40 nM; no hTf.
The target of assay [4] is His-tagged ectodomain of cynomolgus transferrin receptor 1 (cTfR1), amino acids R121-F760 (cynomolgus monkey). Described as above.
In assay [5] the target is His-tagged ectodomain of human transferrin receptor 1 (hTfR1), amino acids R121-F760 (human) (UniProt P02786). Kind of assay: SPR; binder captured on protein A, receptor as analyte 0.156-40 nM; with 250 nM hTf.
Assay [6] deals with His-tagged ectodomain of cynomolgus transferrin receptor 1 (cTfR1), amino acids R121-F760 (cynomolgus monkey). Described as above.

His-tagged ectodomain of human transferrin receptor 1 (hTfR1), amino acids R121-F760 (human), sequence (P02786 other isoform, or with tags, fused parts or gaps limits assumed): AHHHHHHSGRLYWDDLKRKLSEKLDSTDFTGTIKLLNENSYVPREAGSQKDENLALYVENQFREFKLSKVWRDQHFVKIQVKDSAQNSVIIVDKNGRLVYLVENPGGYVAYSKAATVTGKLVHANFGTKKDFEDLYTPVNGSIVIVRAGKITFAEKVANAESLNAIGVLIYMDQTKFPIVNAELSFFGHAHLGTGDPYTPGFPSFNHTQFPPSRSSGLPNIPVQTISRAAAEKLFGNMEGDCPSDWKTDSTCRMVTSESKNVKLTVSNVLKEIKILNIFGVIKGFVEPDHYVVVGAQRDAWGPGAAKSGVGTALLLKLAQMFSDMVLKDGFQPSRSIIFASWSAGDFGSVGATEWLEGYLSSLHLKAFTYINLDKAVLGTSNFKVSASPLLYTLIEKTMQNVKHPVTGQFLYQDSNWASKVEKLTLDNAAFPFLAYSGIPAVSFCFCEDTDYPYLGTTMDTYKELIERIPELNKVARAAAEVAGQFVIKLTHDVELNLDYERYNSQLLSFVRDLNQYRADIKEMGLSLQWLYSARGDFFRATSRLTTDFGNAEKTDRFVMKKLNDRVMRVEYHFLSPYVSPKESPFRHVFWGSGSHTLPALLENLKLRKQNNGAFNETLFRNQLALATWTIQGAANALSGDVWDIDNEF
His-tagged ectodomain of cynomolgus transferrin receptor 1 (cTfR1), amino acids R121-F760 (cynomolgus monkey), sequence (Q5RDH6 other isoform, or with tags, fused parts or gaps limits assumed): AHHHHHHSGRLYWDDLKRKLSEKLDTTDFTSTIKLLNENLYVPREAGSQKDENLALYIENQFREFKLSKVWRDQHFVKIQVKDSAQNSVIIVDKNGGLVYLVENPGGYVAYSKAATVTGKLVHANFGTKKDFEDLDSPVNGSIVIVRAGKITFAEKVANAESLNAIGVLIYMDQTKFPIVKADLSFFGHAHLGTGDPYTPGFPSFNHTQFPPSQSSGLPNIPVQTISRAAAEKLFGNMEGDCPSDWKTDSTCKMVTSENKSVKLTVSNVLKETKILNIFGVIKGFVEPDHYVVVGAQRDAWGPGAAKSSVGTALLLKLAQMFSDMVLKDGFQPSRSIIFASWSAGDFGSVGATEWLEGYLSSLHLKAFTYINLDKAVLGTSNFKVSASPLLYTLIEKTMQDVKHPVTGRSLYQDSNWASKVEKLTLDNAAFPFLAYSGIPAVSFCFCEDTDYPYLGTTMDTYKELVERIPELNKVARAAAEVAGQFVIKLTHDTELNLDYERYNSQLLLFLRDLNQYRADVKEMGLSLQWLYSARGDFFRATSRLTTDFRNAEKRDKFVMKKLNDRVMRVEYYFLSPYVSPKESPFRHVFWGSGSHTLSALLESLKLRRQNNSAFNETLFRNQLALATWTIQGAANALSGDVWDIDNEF

For “Benchmark antibody 128.1 (BA1), full length human IgG1”, in assay [1], the Binding Ratio (BR) of residue D242 was found to be 3.56, the Binding Ratio (BR) of residue E369 amounted to 6.88, the Binding Ratio (BR) of residue G351 was determined as 3.27 and the Binding Ratio (BR) of residue L246 was 3.36. Besides, in assay [1], the Binding Ratio (BR) of residue P249 worked out at 2.64, the Binding Ratio (BR) of residue R364 is 2.64 and the Binding Ratio (BR) of residue V366 was 4.15. Moreover, in assay [2], the Kd amounted to 0.0199 nM, the koff worked out at 5.63e-05 s⁻¹ and the on-rate constant (kon) was 2.82e+06 M⁻¹ s⁻¹. Besides, in assay [3], the Kd was 0.101 nM, the dissociation rate constant (koff) is 8.87e-05 s⁻¹ and the kon turned out to be 882000 M⁻¹ s⁻¹. In assay [4], this substance returned a dissociation constant (Kd) of 0.414 nM, a koff of 8.85e-05 s⁻¹ and a kon of 214000 M⁻¹ s⁻¹. Moreover, in assay [5], the Kd was 0.0834 nM, the off-rate constant (koff) turned out to be 5.77e-05 s⁻¹ and the on-rate constant (kon) was found to be 692000 M⁻¹ s⁻¹. Besides, in assay [6], the equilibrium dissociation constant (Kd) is 0.33 nM, the koff is 8e-05 s⁻¹ and the on-rate constant (kon) was determined as 242000 M⁻¹ s⁻¹.

One may read the Kd as a measure of binding affinity in units of concentration. Broadly, the koff is the rate constant with which the complex falls apart. A lower koff goes with a long-lived complex. Usually kon stands for a measure of how fast the partners come together. The low end stands for slower complex formation, the high end for faster complex formation.
